Sequences and labels used below:
B1: mSA-Pfs25-HIS (other)
chain: AEAGITGTWYNQHGSTFTVTAGADGNLTGQYENRAQGTGCQNSPYTLTGRYNGTKLEWRVEWNNSTENCHSRTEWRGQYQGGAEARINTQWNLTYEGGSGPATEQGQDTFTKVKGGSNKLYSLFLFLFIQLSIKYNNAKVTVDTVCKRGFLIQMSGHLECKCENDLVLVNEETCEEKVLKCDEKTVNKPCGDFSKCIKIDGNPVSYACKCNLGYDMVNNVCIPNECKNVTCGNGKCILDTSNPVKTGVCSCNIGKVPNVQDQNKCSKDGETKCSLKCLKENETCKAVDGIYKCDCKDGFIIDNESSICTAFSAYNILNLSIMFILFSVCFFIM
notes: also called A10
B2: HIS-RO-mSA (other)
chain: GSTSENRNKRIGGPKLRGNVTSNIKFPSDNKGKIIRGSNDKLNKNSEDVLEQSEKSLVSENVPSGLDIDDIPKESIFIQEDQEGQTHSELNPETSEHSKDLNNNGSKNESSDIISENNKSNKVQNHFESLSDLELLENSSQDNLDKDTISTEPFPNQKHKDLQQDLNDEPLEPFPTQIHKDYKEKNLINEEDSEPFPRQKHKKVDNHNEEKNVFHENGSANGNQGSLKLKSFDEHLKDEKIENEPLVHENLSIPNDPIEQILNQPEQETNIQEQLYNEKQNVEEKQNSQIPSLDLKEPTNEDILPNHNPLENIKQSESEINHVQDHALPKENIIDKLDNQKEHIDQSQHNINVLQENNINNHQLEPQEKPNIESFEPKNIDSEIILPENVETEEIIDDVPSPKHSNHETFEEETSESEHEEAVSEKNAHETVEHEETVSQESNPEKADNDGNVSQNSNNELNENEFVESEKSEHEAGGSGAEAGITGTWYNQHGSTFTVTAGADGNLTGQYENRAQGTGCQNSPYTLTGRYNGTKLEWRVEWNNSTENCHSRTEWRGQYQGGAEARINTQWNLTYEGGSGPATEQGQDTFTKVK
notes: also called A6
B3: mSA-PfRH5-HIS (other)
chain: AEAGITGTWYNQHGSTFTVTAGADGNLTGQYENRAQGTGCQNSPYTLTGRYNGTKLEWRVEWNNSTENCHSRTEWRGQYQGGAEARINTQWNLTYEGGSGPATEQGQDTFTKVKGGSLSFENAIKKTKNQENNLTLLPIKSTEEEKDDIKNGKDIKKEIDNDKENIKTNNAKDHSTYIKSYLNTNVNDGLKYLFIPSHNSFIKKYSVFNQINDGMLLNEKNDVKNNEDYKNVDYKNVNFLQYHFKELSNYNIANSIDILQEKEGHLDFVIIPHYTFLDYYKHLSYNSIYHKYSTYGKYIAVDAFIKKINETYDKVKSKCNDIKNDLIATIKKLEHPYDINNKNDDSYRYDISEEIDDKSEETDDETEEVEDSIQDTDSNHTPSNKKKNDLMNRTFKKMMDEYNTKKKKLIKCIKNHENDFNKICMDMKNYGTNLFEQLSCYNNNFCNTNGIRFHYDEYIHKLILSVKSKNLNKDLSDMTNILQQSELLLTNLNKKMGSYIYIDTIKFIHKEMKHIFNRIEYHTKIINDKTKIIQDKIKLNIWRTFQKDELLKRILDMSNEYSLFITSDHLRQMLYNTFYSKEKHLNNIFHHLIYVLQMKFNDVPIKMEYFQTYKKNKPLTQHHHHHH
notes: mSA fused by GGS to PfRH5, C-terminal His tag; also called A9
B4: HIS-GMZ2ggsmSA (other)
chain: GSTSENRNKRIGGPKLRGNVTSNIKFPSDNKGKIIRGSNDKLNKNSEDVLEQSEKSLVSENVPSGLDIDDIPKESIFIQEDQEGQTHSELNPETSEHSKDLNNNGSKNESSDIISENNKSNKVQNHFESLSDLELLENSSQDNLDKDTISTEPFPNQKHKDLQQDLNDEPLEPFPTQIHKDYKEKNLINEEDSEPFPRQKHKKVDNHNEEKNVFHENGSANGNQGSLKLKSFDEHLKDEKIENEPLVHENLSIPNDPIEQILNQPEQETNIQEQLYNEKQNVEEKQNSQIPSLDLKEPTNEDILPNHNPLENIKQSESEINHVQDHALPKENIIDKLDNQKEHIDQSQHNINVLQENNINNHQLEPQEKPNIESFEPKNIDSEIILPENVETEEIIDDVPSPKHSNHETFEEETSESEHEEAVSEKNAHETVEHEETVSQESNPEKADNDGNVSQNSNNELNENEFVESEKSEHEARSKAKEASSYDYILGWEFGGGVPEHKKEENMLSHLYVSSKDKENISKENDDVLDEKEEEAEETEEEELEEKNEEETESEISEDEEEEEEEEEKEEENDKKKEQEKEQSNENNDQKKDMEAQNLISKNQNNNEKNVKEAAESIMKTLAGLIKGNNQIDSTLKDLVEELSKYFKNHGGSGAEAGITGTWYNQHGSTFTVTAGADGNLTGQYENRAQGTGCQNSPYTLTGRYNGTKLEWRVEWNNSTENCHSRTEWRGQYQGGAEARINTQWNLTYEGGSGPATEQGQDTFTKVK
notes: also called A7
B5: HIS-GMZ2T:ggsmSA (other)
chain: GSTSENRNKRIGGPKLRGNVTSNIKFPSDNKGKIIRGSNDKLNKNSEDVLEQSEKSLVSENVPSGLDIDDIPKESIFIQEDQEGQTHSELNPETSEHSKDLNNNGSKNESSDIISENNKSNKVQNHFESLSDLELLENSSQDNLDKDTISTEPFPNQKHKDLQQDLNDEPLEPFPTQIHKDYKEKNLINEEDSEPFPRQKHKKVDNHNEEKNVFHENGSANGNQGSLKLKSFDEHLKDEKIENEPLVHENLSIPNDPIEQILNQPEQETNIQEQLYNEKQNVEEKQNSQIPSLDLKEPTNEDILPNHNPLENIKQSESEINHVQDHALPKENIIDKLDNQKEHIDQSQHNINVLQENNINNHQLEPQEKPNIESFEPKNIDSEIILPENVETEEIIDDVPSPKHSNHETFEEETSESEHEEAVSEKNAHETVEHEETVSQESNPEKADNDGNVSQNSNNELNENEFVESEKSEHEARSKTKEYAEKAKNAYEKAKNAYQKANQAVLKAKEASSYDYILGWEFGGGVPEHKKEENMLSHLYVSSKDKENISKENDDVLDEKEEEAEETEEEELEGGSGAEAGITGTWYNQHGSTFTVTAGADGNLTGQYENRAQGTGCQNSPYTLTGRYNGTKLEWRVEWNNSTENCHSRTEWRGQYQGGAEARINTQWNLTYEGGSGPATEQGQDTFTKVK
notes: also called A8
B6: mSA-ID1ID2a-HIS (other)
chain: AEAGITGTWYNQHGSTFTVTAGADGNLTGQYENRAQGTGCQNSPYTLTGRYNGTKLEWRVEWNNSTENCHSRTEWRGQYQGGAEARINTQWNLTYEGGSGPATEQGQDTFTKVKGGSNYIKGDPYFAEYATKLSFILNPSDANNPSGETANHNDEACNCNESGISSVGQAQTSGPSSNKTCITHSSIKTNKKKECKDVKLGVRENDKDLKICVIEDTSLSGVDNCCCQDLLGILQENCSDNKRGSSSNDSCDNKNQDECQKKLEKVFASLTNGYKCDKCKSGTSRSKKKWIWKKSSGNEEGLQEEYANTIGLPPRTQSLYLGNLPKLENVCEDVKDINFDTKEKFLAGCLIVSFHEGKNLKKRYPQNKNSGNKENLCKALEYSFADYGDLIKGTSIWDNEYTKDLELNLQNNFGKLFGKYIKKNNTAEQDTSYSSLDELRESWWNTNKKYIWTAMKHGAEMNITTCNADGSVTGSGSSCDDIPTIDLIPQYLRFLQEWVENFCEQRQAKVKDVITNCKSCKESGNKCKTECKTKCKDECEKYKKFIEACGTAGGGIGTAGSPWSKRWDQIYKRYSKHIEDAKRNRKAGTKNCGTSSTTNAAASTDENKCVQSDIDSFFKHLIDIGLTTPSSYLSNVLDDNICGADKAPWTTYTTYTTTEKCNKERDKSKSQSSDTLVVVNVPSPLGNTPYRYKYACQCKIPTNEETCDDRKEYMNQWSCGSARTMKRGYKNDNYELCKYNGVDVKPTTVRSNSSKLDHHHHHH
notes: mSA fused at the amino terminus by Gly-Gly-Ser to the ID1-ID2a domains of VAR2CSA, C-terminal 6x histidine tag; made in baculovirus-infected High-Five cells; also called A4; mSA-VAR2CSA
B7: mSA-RO-HIS (other)
chain: AEAGITGTWYNQHGSTFTVTAGADGNLTGQYENRAQGTGCQNSPYTLTGRYNGTKLEWRVEWNNSTENCHSRTEWRGQYQGGAEARINTQWNLTYEGGSGPATEQGQDTFTKVKGGSTSENRNKRIGGPKLRGNVTSNIKFPSDNKGKIIRGSNDKLNKNSEDVLEQSEKSLVSENVPSGLDIDDIPKESIFIQEDQEGQTHSELNPETSEHSKDLNNNGSKNESSDIISENNKSNKVQNHFESLSDLELLENSSQDNLDKDTISTEPFPNQKHKDLQQDLNDEPLEPFPTQIHKDYKEKNLINEEDSEPFPRQKHKKVDNHNEEKNVFHENGSANGNQGSLKLKSFDEHLKDEKIENEPLVHENLSIPNDPIEQILNQPEQETNIQEQLYNEKQNVEEKQNSQIPSLDLKEPTNEDILPNHNPLENIKQSESEINHVQDHALPKENIIDKLDNQKEHIDQSQHNINVLQENNINNHQLEPQEKPNIESFEPKNIDSEIILPENVETEEIIDDVPSPKHSNHETFEEETSESEHEEAVSEKNAHETVEHEETVSQESNPEKADNDGNVSQNSNNELNENEFVESEKSEHEARSKAKEASSYDYILGWEFGGGVPEHKKEENMLSHLYVSSKDKENISKENDDVLDEKEEEAEETEEEELEEKNEEETESEISEDEEEEEEEEEKEEENDKKKEQEKEQSNENNDQKKDMEAQNLISKNQNNNEKNVKEAAESIMKTLAGLIKGNNQIDSTLKDLVEELSKYFKNHRSHHHHHH
notes: also called A5

The target in the first assay is T1, biotinylated HPV16 Avi-L1 VLP, L1avi1 (H4-loop, HPV16) (Human papillomavirus type 16, UniProt P03101 14-505).
T1 construct: also called VLP1; Avi-L1 (H4-βJ coil)
T1 sequence: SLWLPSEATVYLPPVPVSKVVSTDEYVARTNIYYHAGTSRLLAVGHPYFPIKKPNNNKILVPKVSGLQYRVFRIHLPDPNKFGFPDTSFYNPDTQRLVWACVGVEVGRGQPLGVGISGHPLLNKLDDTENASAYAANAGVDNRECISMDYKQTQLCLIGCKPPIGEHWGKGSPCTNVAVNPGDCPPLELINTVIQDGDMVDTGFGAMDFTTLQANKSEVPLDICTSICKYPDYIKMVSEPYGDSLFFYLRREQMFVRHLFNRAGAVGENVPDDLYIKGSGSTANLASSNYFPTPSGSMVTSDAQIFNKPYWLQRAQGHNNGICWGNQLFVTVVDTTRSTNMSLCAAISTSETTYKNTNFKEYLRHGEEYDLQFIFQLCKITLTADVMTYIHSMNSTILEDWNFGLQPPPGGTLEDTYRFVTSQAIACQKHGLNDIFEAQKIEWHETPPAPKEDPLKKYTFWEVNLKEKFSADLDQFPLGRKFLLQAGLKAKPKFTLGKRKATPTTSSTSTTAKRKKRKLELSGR
The assay is described as follows: biotinylated VLPs mixed with excess mSA-antigen, density gradient ultracentrifugation, SDS-PAGE.
B1: the binding result is “no binding”.
Regarding B2, the binding result is given as “no binding”.
Regarding B3, the binding result is on record as “no binding”.
For B4, the binding result is “no binding”.
As for B5, the binding result is “no binding”.
Same read-out and setting: the entry for B6 is “no binding”.
Turning to B7, the binding result is “no binding”.

The target of the next assay is T2, biotinylated HPV16 Avi-L1 VLP, L1avi3 (DE-loop, HPV16) (Human papillomavirus type 16, UniProt P03101 2-505).
T2 construct: also called VLP3; Avi-L1 (DE)
T2 sequence: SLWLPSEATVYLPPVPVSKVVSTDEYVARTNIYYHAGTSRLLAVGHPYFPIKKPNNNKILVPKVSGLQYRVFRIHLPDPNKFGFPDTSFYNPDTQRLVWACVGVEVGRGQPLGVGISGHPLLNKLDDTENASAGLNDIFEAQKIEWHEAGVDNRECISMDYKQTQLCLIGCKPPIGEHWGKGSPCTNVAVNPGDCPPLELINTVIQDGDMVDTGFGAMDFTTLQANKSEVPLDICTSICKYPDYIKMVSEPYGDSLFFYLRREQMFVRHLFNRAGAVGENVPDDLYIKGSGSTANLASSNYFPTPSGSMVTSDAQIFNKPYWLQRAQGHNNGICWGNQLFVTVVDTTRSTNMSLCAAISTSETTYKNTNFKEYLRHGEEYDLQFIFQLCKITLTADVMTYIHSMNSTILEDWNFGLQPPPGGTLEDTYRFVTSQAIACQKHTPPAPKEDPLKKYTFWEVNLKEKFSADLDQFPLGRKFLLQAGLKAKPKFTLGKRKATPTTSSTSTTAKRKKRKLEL
The experiment in a line: coupling: biotinylated VLPs mixed with excess mSA-antigen, density gradient ultracentrifugation, SDS-PAGE.
With B2, the binding result is “binds”.
As to B3, the binding result is reported as “binds”.
For the molecule B4, the binding result is “binds”.
B5: the binding result is “binds”.
B6: the binding result was “binds”.

(Values after US20190022206A1 (UNIVERSITY OF COPENHAGEN, published 2019).)
